Drawing on US20200262918A1 (Stanford University, published 2020), this text covers Kd for two molecules.

The target of the assay is human SIRPα (human, UniProt P78324 31-373). In words: Biacore (SPR), format not stated. In general terms: SPR reads the build-up and loss of mass on a sensor chip optically.
Sequence of human SIRPα (P78324 31-504): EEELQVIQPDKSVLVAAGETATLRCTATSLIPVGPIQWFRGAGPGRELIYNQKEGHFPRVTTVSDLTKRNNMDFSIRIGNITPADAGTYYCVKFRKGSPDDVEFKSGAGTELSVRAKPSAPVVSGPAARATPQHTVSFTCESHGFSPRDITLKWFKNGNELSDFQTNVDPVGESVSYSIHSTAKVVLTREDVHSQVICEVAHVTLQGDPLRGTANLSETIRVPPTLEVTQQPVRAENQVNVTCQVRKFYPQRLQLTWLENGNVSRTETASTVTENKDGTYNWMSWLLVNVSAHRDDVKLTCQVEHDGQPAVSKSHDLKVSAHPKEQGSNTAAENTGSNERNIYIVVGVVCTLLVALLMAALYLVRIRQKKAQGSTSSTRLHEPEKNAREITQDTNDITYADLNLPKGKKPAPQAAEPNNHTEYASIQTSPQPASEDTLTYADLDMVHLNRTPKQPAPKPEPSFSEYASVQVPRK

B1: Mouse KWAR23 anti-SIRPα antibody (antibody, V domains shown)
VH: EVQLQQSGAELVKPGASVKLSCTASGFNIKDYYIHWVQQRTEQGLEWIGRIDPEDGETKYAPKFQDKATITADTSSNTAYLHLSSLTSEDTAVYYCARWGAYWGQGTLVTVSS
VL: QIVLTQSPAIMSASPGEKVTLTCSASSSVSSSYLYWYQQKPGSSPKLWIYSTSNLASGVPARFSGSGSGTSYSLTISSMEAEDAASYFCHQWSSYPRTFGAGTKLELK
notes: also called mouse antibody; mKWAR
In general, Kd refers to the equilibrium constant for the complex coming apart. Lower therefore signals higher affinity. The molecule B1 had a Kd of 1.18 nM.

B2: Humanized KWAR23 anti-SIRPα antibody (antibody, V domains shown)
VH: EVQLVQSGAEVKKPGATVKISCKVSGFNIKDYYIHWVQQAPGKGLEWIGRIDPEDGETKYAPKFQDRATITADTSTDTAYMELSSLRSEDTAVYYCARWGAYWGQGTLVTVSS
VL: QIVLTQSPPTLSLSPGERVTLTCSASSSVSSSYLYWYQQKPGQAPKLWIYSTSNLASGVPARFSGSGSGTSYTLTISSLQPEDFAVYFCHQWSSYPRTFGAGTKLEIK
notes: The phagocytosis assays used HuKwar-G1, a human IgG1 with N297A; also called HuKwar-G1; HuKWar-G1
Turning to B2, the Kd amounted to 1.54 nM.
